# Test results taken from patent publication US20110217318A1 (MOCHIDA PHARMACEUTICAL, published 2011).
# T1: human platelet membrane glycoprotein VI (GPVI) on human platelets (human, UniProt Q9HCN6 21-339)
# T1 construct: whole, on cells
# T1 sequence (looked up): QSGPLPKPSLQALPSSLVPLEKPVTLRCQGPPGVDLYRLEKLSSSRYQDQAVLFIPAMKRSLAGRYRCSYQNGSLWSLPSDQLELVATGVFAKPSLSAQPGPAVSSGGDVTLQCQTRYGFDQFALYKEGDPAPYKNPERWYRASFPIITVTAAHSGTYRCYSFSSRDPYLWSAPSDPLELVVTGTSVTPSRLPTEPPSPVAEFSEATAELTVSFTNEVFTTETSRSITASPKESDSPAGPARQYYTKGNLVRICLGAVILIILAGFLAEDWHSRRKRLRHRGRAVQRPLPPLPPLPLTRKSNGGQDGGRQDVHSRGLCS
# T2: cynomolgus monkey GPVI on cynomolgus monkey platelets (cynomolgus monkey, UniProt A0A2K5VXN2 21-318)
# T2 construct: whole, on cells; also called simian platelets
# T2 sequence: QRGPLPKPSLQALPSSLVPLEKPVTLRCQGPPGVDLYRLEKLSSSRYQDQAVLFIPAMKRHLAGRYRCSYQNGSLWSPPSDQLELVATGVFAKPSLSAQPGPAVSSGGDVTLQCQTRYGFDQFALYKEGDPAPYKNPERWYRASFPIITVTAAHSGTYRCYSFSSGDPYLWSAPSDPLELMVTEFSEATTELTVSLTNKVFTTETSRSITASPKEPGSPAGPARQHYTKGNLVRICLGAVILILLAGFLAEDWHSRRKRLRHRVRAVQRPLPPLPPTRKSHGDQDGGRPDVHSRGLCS
# Experiments:
# [1] = molecular target: T1, human platelet membrane glycoprotein VI …; test: homologous competitive binding of 125I-labelled antibody on washed human platelets, n=3, mean±S.E.
# Description: (§1) ACD-A (acid citrate-dextrose) was added to the PRPs prepared from citrated blood obtained from healthy human or cynomolgus monkey to adjust the pH to 6.5. The obtained PRPs were collected by centrifugation at 2,000 rpm. The pelleted platelets were washed with HEPES Buffer (pH was adjusted to 6.5 with ACD-A). An appropriate quantity of HEPES Buffer (pH 7.4) was added to prepare platelet suspension. The number of platelets were determined with SYSMEX® F-820 (Sysmex Co.), then the above-described platelet suspension was diluted with HEPES buffer (pH 7.4) to platelet count at 6×10⁵ cells/μL.
# (§2) To the diluted washed platelets, the labeled and non-labeled antibodies were added at final concentrations of 3 nM and 0-1250 nM, respectively, and mixed to obtain platelet count at 3×10⁵ cells/μL. After incubating the mixture on the ice for one hour, the reactant was passed through 30% sucrose/HEPE buffer (pH 7.4) layered column and centrifuged at 12,000 g for 5 min in order to separate the platelets and non-bound antibodies. The radioactivity of each fraction was measured using automatic gamma counter 1470 WIZARD (PerkinElmer Japan). Data was analyzed using GraphPad Prism software (Graph Pad Software, Inc.).
# [2] = molecular target: T2, cynomolgus monkey GPVI on cynomolgus …; test: homologous competitive binding of 125I-labelled antibody on washed cynomolgus monkey platelets, n=3, mean±S.E.
# Description: as §1, §2
# [3] = molecular target: T3, mouse GPVI extracellular region-human Fc fusion protein (mGPVI-hFc) (mouse); test: competition ELISA, soluble GPVI-Fc against immobilised hGPVI-hFc
# T3 construct: whole fusion entry; also called GPVI-MMM-hFc; mouse GPVI-Fc
# Description: To the plate, wherein hGPVI-hFc has been immobilized at 4 μg/mL, a mixture of peroxidase-labeled F1232-37-2 or cF1232-37-2 by the method described in EXAMPLE 14, and hGPVI-hFc, mGPVI-hFc, hGPVI-mL3-hFc, wherein these were prepared in EXAMPLE 7, or hGPVI-K59E-hFc (a fusion protein consisting of one amino acid mutated human GPVI extracellular region, wherein lysine at 59 of human GPVI is substituted for glutamic acid, and human Fc), which has been prepared by the same method as that of EXAMPLE 1 and diluted with 0.1% BSA/PBS was added, and the plate was incubated at 37° C. for one hour. After incubation, the mixture was developed using TMB solution, and absorbance at 450 nm was measured.
# [4] = molecular target: T4, human GPVI extracellular region-human Fc fusion protein (hGPVI-hFc) (human); test: ELISA on immobilised hGPVI-hFc; ++ = absorbance 1.0 to 2.0
# T4 construct: Expressed in COS-1, purified on Protein A; also called GPVI-HHH-hFc; hGPVIHHH-hFc
# Description: The hGPVI-hFc prepared by EXAMPLE 1B was diluted with D-PBS to 2 μg/mL and added to immunoplate (Maxisorp, NUNC) at 50 μL/well. After incubation at 37° C. for one hour, the well was washed five times with ion-exchanged water, and D-PBS (pH7.4) containing 2% STABILGUARD® (chemical solutions for stabilizing biological molecules) (Surmodics) was added to each well in 100 μL for blocking. Next, culture supernatant was added to each well and incubated at 37° C. for one hour. After incubation, the well was washed three times with the saline containing 0.05% TWEEN®20 (Polyoxyethylene (20) sorbitan monolaurate). […] After incubation at 37° C. for one hour, washing in a similar manner was performed five times and TMB solution (BIOFX® (reagents for scientific or medical research) was added to each well. After ten minutes at room temperature, the reaction was terminated with 0.5 M sulfuric acid solution. Subsequently, absorbance at 450 nm was measured with the plate spectrophotometer (Multiscan JX, Dainippon Pharmaceutical). As a result, the cell whose culture supernatant reacted to hGPVI-hFc was selected and a cloning with limiting dilution method (“The Introduction to Monoclonal Antibody Experimental Procedure” written by Tamie Andoh and Takeshi Chiba (Kodansha, p97)) was performed. […]
# [5] = molecular target: T4, human GPVI extracellular region-human …; test: SPR BIACORE 3000 as in Example 5 (the reference itself)
# T3 sequence (chain, as listed by the source limits assumed): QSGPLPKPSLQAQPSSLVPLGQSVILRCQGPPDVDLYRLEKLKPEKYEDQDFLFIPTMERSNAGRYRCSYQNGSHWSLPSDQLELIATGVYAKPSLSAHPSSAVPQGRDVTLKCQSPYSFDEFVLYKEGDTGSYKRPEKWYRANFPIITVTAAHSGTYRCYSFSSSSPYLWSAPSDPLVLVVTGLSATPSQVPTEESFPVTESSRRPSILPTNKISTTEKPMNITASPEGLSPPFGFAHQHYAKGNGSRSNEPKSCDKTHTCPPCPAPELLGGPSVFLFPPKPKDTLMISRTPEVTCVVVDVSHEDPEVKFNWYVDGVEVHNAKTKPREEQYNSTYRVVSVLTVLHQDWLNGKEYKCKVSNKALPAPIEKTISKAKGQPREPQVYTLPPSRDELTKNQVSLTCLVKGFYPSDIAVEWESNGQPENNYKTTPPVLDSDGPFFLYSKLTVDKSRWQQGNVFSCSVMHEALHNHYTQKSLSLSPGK
Kd [1] [nM],Kd [2] [nM],binding result [3],absorbance [4] [od],KD (Relative value) [5],Binder
17,20,no binding,,,"cF1232-37-2 (mouse/human chimeric F1232-37-2) (antibody, V domains shown, V regions of F1232-37-2 on human IgG4 (Cgamma4) and human Ckappa constant regions; made in COS-1 (/COS) or CHO (/CHO); both preparations are kept under this one id; also called cF1232-37-2/COS; cF1232-37-2/CHO) VH: VQLQQSGPELVRPGESVKISCKGSGYTFTDYAIHWVKLSHAKSLEWIGVISIYYDDTNYNQKFKGKATMTVDKSSSTAYLELARLTSEDSAIYYCARRRDSSGPYAMDYWGQGTSVTVSS VL: DIVLTQSPASLAVSLGQRATISCRASESVDSYGNSFMHWYQQKPGQPPKLLIYRASNLESGIPARFSGSGSRTDFTLTINPVEADDVATYYCQQSNEDPYTFGGGTKLEIKR"
,,no binding,1 to 2,1 relative to F1232-37-2 = 1,"F1232-37-2 (antibody, V domains shown, mouse hybridoma monoclonal antibody; also called F1232-37-2 antibody; mouse monoclonal antibody F1232-37-2) VH: VQLQQSGPELVRPGESVKISCKGSGYTFTDYAIHWVKLSHAKSLEWIGVISIYYDDTNYNQKFKGKATMTVDKSSSTAYLELARLTSEDSAIYYCARRRDSSGPYAMDYWGQGTSVTVSS VL: DIVLTQSPASLAVSLGQRATISCRASESVDSYGNSFMHWYQQKPGQPPKLLIYRASNLESGIPARFSGSGSRTDFTLTINPVEADDVATYYCQQSNEDPYTFGGGTKLEIKR"
